Measurements reported in patent publication US9175077B2, “Nucleic acids encoding biologically active polypeptides derived from a novel early stage pregnancy factor designated maternin (MA)” (NOBEL BIOSCIENCES LLC, priority 1999, dated 2015).
Read-outs that look alike come from different tables or passages of the source.

Columns and labels:
[1] = Summary of active and inactive peptides / overall biological activities
[2] = tested on: human tumor cells; format: cell-based; details: controls at equimolar or 5 to 10× greater concentrations
Method: The anti-tumor activities of MA were assessed in several in vitro and in vivo systems using published methods.^166 In vitro studies were with a wide variety of human tumor cell lines as well as short-term cultures of cells from biopsy samples obtained from tumors. The assays included effects of MA on colony formation, cell number and viability (trypan blue), and apoptosis. Four measures of microscopy were used. In vivo studies included the effects of MA on tumors induced in immunodeficient mice by xenotransplanted various human neoplastic cells, spontaneous neoplasms of immuno-competent mice and rats, and a few standard tumors in immuno-competent mice. Representative examples are presented.
Cells (5×10^5/ml) were seeded in modified Eagle's medium supplemented with 10% FCS, 10% conditioned medium form PHA stimulated human lymphocytes, 2 mM glutamine in 0.8% V/V methylcellulose with or without various treatments in a final volume of 1.0 ml. Then 0.1 ml aliquots were seeded in 96 well flat bottom microtest plates and incubated at 37° C. in 5% CO2 in air for 7 days. Aggregates containing 50 cells or more were scored as colonies.
5×10^5 cells were seeded in triplicate on 24 gelatin coated wells in conditions as described for Panel A and treated with the indicated test materials. After 3 days the cells were dislodged from their monolayers by gentle pipetting with cell dissociation buffer (Life Technologies), counted after trypan blue staining and aliquots examined for Annexin V staining by indirect IFA […].
Studies of the anti-tumor cell effects of MA were extended to other carcinomas, melanoma, some hematopoietic tumors, and carcinomas of the colon, prostate, breast, lung, brain, pancreas, and kidney-using cell lines from these tumors. […] Many more types of tumor cells were studied utilizing other assays (see below).

[3] = tested on: human carcinoma and sarcoma cells (PC3, KS Y-1); test: Xenotransplanted human tumors in immunodeficient mice; format: in vivo; details: controls at equivalent and higher molar concentrations
Method: In the first set of experiments, MA was tested against tumors formed by xenotransplantation of various human carcinoma and sarcoma cells in immunodeficient mice. […] […] Three different synthetic forms of MA were used: full length (MAS3) and the previously described MAS1 and MAS2 (Panel C).

[4] = tested on: HIV-1; details: controls at similar, equimolar or higher concentrations
Method: Virus (MOI of 0.001) was added to 10^6 cells in RPMI-1640 with 10% FCS. One hour later the various polypeptides were added once. The cells cultured for 3 days with 5 ug PHA and 20 i.m. of II-2/ml at 37°, after which virus was estimated by determining p24 (HIV-1) or p27 (SIV) (Organon-Teknika).
The effect of native and synthetic MA on HIV-1 infection in vitro was evaluated using PHA and II-2 stimulated primary peripheral blood cells (PBMC), CD4+ T-cells enriched fractions from PBMC, and CD14+ macrophage enriched fractions. Infection was with HIV-1 IIIB (PBMC and CD4+ T-cells), HIV-1 Ba-L (macrophages), and two primary HIV-1 isolates not passaged in any cell line (PBMC).

[5] = tested on: HIV-1 gene expression; test: HIV-1 transgenic mice, pups feeding from treated mothers; format: in vivo; details: mouse, in vivo
Source text: The transgenic mice contain 5.1 kb of the HIV-1 proviral genome, lacking gag and pol genes and 2.3 kb of vector.^172 The newly developed transgenic rat contains the same HIV-1 sequences and vector.
Twenty-four hours after birth the mothers were either inoculated subcutaneously daily for 10 days or received an implanted osmotic pump delivering 30-150 pmoles of either native or synthetic MA or pMA. Various control polypeptides were used at equimolar or vast molar excess. The newborn pups were then allowed to feed from the foster mother breast milk over the entire period. Since the animals are at risk from needle inoculation, breastfeeding was the chosen route for MA administration.
In these experiments total RNA was extracted from samples of skin RNA206 10 days after birth of MA treated and untreated mice. One ug of RNA was reverse transcribed into cDNA using random hexamer primer and […] reverse transcriptase (Life Technologies, Inc.) in a final vol. Of 30 ul. Three ul of each reaction was used for PCR amplification of the HIV-1 gene sequences (env, tat, nef, and rev) as described […], and glyceraldehyde 3-phosphate dehydrogenase (GAPDH) was amplified from each sample for normalization. After 25 cycles, 10% of the products were resolved by electrophoresis on 2% agarose gels, transferred to nitrocellulose membranes by Southern blotting, and hybridized to fluorescein isthiocyanate-labeled oligonucleotide probes complementary to internal sequences of the amplicons […]. Bound probes were detected by chemiluminescence (Amersham) and relative mRNA levels determined by densitrometry after normalization with GAPDH mRNA levels.

[6] = tested on: hematopoietic progenitors (CFU-GEMM, BFU-e, CFU-GM, T-CFC); test: Hematopoietic colony formation assays; format: cell-based, human
Source text: Hematopoietic colony formation assays with bone marrow or cord blood of normal human volunteers and bone marrow of monkeys, rats, and mice were utilized. The assays are conventional measurements of the number of progenitors for erythrocytes, granulocytes, macrophages, platelets, and T-cells. The culture conditions included growth factors that would give near optimum growth for the particular lineage. These factors included II-3, PHA-lymphocyte conditioned medium, erythropoietin (EPO), II-6, and GM-CSF. The number of colonies developing in methylcellulose reflects the number of progenitor cells, and the percent increase is a measure of the effect of different polypeptides to increase colony number above the maximum obtained with the indicated known growth factors.
The latter is a less conventional assay, and details on the methods involved are described elsewhere.^178

[7] = Lethal dose taxol in Sprague-Dawley rats; format: in vivo; details: even at high doses
Method: Sprague-Dawley rats were given taxol in large lethal doses, 4.5 mg in one I.P. inoculation. […] Bone marrow suppression can also be a side effect of the clinical use of taxol.^179 As in the radiation experiments, either MA, pMA, MAS1, or various polypeptide controls were given subcutaneously only in two doses 24 and 48 hrs before taxol treatment or were given 3×/week for 4 weeks. […]

[8] = biological target: T1, hCG receptor (Homo sapiens, UniProt P22888); details: cited from earlier work
T1 construct: host or cells: unspecified cells

[9] = tested on: HIV; details: higher doses increased viral production; cited from earlier work

T1 sequence (P22888 27-699): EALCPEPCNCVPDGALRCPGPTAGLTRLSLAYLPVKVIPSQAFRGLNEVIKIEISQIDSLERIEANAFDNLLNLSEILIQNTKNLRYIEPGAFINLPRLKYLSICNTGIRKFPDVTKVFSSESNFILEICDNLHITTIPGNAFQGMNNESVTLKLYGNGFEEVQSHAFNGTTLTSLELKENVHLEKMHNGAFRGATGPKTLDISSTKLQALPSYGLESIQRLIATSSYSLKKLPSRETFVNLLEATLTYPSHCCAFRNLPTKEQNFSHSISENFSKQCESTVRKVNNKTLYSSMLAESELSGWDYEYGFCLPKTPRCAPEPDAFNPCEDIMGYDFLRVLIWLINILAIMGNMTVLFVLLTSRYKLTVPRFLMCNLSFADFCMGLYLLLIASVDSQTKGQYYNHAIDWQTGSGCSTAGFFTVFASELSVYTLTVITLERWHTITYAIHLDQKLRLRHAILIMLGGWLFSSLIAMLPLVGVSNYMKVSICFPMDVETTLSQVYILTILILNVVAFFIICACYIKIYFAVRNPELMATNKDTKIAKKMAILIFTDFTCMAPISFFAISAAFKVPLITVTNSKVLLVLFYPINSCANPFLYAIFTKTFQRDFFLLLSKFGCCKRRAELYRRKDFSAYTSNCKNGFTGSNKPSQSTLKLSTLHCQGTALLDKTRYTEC

B1: β-hCG: β-chain of human chorionic gonadotropin, AA 1-145 (SEQ ID NO: 1) (protein, listed as Homo sapiens)
chain: SKEPLRPRCRPINATLAVEKEGCPVCITVNTTICAGYCPTMTRVLQGVLPALPQVVCNYRDVRFESIRLPGCPRGVNPVVSYAVALSCQCALCRRSTTDCGGPKDHPLTCDDPRFQDSSSSKAPPPSLPSPSRLPGPSDTPILPQ
biological activities in vitro or in vivo in the experimental systems described [1]: no activity
inhibition of growth / induction of apoptosis of neoplastic cells [2]: no inhibition of growth or induction of apoptosis
effect on xenotransplanted tumor (qualitative) [3]: no effect
inhibition of HIV replication (qualitative) [4]: No inhibition
inhibition of HIV replication (qualitative) ([4]; listed as rβ-hCG): no effect
HIV-1 viral expression in tissues [5]: high expression
mice dead by day 10 [5]: 10 of 10
hematopoietic effects in vivo and in vitro [6]: None
effect on colony number (qualitative) ([6]; equimolar or higher concentrations): no significant effect above background
effect on survival (qualitative) [7]: no effect
binding to the hCG receptor [8]: neither β-hCG or any of its degradation products significantly bind
doses reducing HIV production in monocytes [9]: ≤ 10 µg/mL
